± gives the uncertainty stated by the source.
B1: POU domain, class 3, transcription factor 2, residues 262 to 338; numbered along this chain, P20265 (parent)
chain: EDTPTSDDLEQFAKQFKQRRIKLGFTQADVGLALGTLYGNVFSQTTICRFEALQLSFKNMCKLKPLLNKWLEEADSS

Variants of: B1
Assay: abundance fitness (aPCA) (normalised: wild type 0, dead -1); higher = more abundant; growth selection in yeast, the domain comes from the species named
Settings: Homo sapiens

Row | Variant | abundance fitness
1 | EDTPTSDDLEQFAKQFKQRRIKLGFTQADVGLALGTLYGNVFSQTTICRFEALQLSFKDMCKLKPLLNKWLEEADSS [N59D] | 0.105 ± 0.06
2 | EDTPTSDDLEQFAKQFKQRRIKLGFTQADVGLALGTLYGNVFSQTTICRFEALQLSFKCMCKLKPLLNKWLEEADSS [N59C] | -0.042 ± 0.056
3 | EDTPTSDDLEQFAKQFKQRRIKLGFTQADVGLALGTLYGNVFSQTTICRFEALQLSFKRMCKLKPLLNKWLEEADSS [N59R] | 0.059 ± 0.029
4 | EDTPTSDDLEQFAKQFKQRRIKLGFTQADVGLALGTLYGNVFSQTTICRFEALQLSFKAMCKLKPLLNKWLEEADSS [N59A] | 0.007 ± 0.037
5 | EDTPTSDDLEQFAKQFKQRRIKLGFTQADVGLALGTLYGNVFSQTTICRFEALQLSFKVMCKLKPLLNKWLEEADSS [N59V] | 0.041 ± 0.033
6 | EDTPTSDDLEQFAKQFKQRRIKLGFTQADVGLALGTLYGNVFSQTTICRFEALQLSFKFMCKLKPLLNKWLEEADSS [N59F] | -0.014 ± 0.086
7 | EDTPTSDDLEQFAKQFKQRRIKLGFTQADVGLALGTLYGNVFSQTTICRFEALQLSFKSMCKLKPLLNKWLEEADSS [N59S] | -0.001 ± 0.039
8 | EDTPTSDDLEQFAKQFKQRRIKLGFTQADVGLALGTLYGNVFSQTTICRFEALQLSFKHMCKLKPLLNKWLEEADSS [N59H] | 0.017 ± 0.065
9 | EDTPTSDDLEQFAKQFKQRRIKLGFTQADVGLALGTLYGNVFSQTTICRFEALQLSFKWMCKLKPLLNKWLEEADSS [N59W] | -0.074 ± 0.04
10 | EDTPTSDDLEQFAKQFKQRRIKLGFTQADVGLALGTLYGNVFSQTTICRFEALQLSFKLMCKLKPLLNKWLEEADSS [N59L] | 0.029 ± 0.042
11 | EDTPTSDDLEQFAKQFKQRRIKLGFTQADVGLALGTLYGNVFSQTTICRFEALQLSFKQMCKLKPLLNKWLEEADSS [N59Q] | -0.001 ± 0.044
12 | EDTPTSDDLEQFAKQFKQRRIKLGFTQADVGLALGTLYGNVFSQTTICRFEALQLSFKKMCKLKPLLNKWLEEADSS [N59K] | -0.022 ± 0.039
13 | EDTPTSDDLEQFAKQFKQRRIKLGFTQADVGLALGTLYGNVFSQTTICRFEALQLSFKPMCKLKPLLNKWLEEADSS [N59P] | -0.559 ± 0.092
14 | EDTPTSDDLEQFAKQFKQRRIKLGFTQADVGLALGTLYGNVFSQTTICRFEALQLSFKYMCKLKPLLNKWLEEADSS [N59Y] | -0.103 ± 0.068
15 | EDTPTSDDLEQFAKQFKQRRIKLGFTQADVGLALGTLYGNVFSQTTICRFEALQLSFKIMCKLKPLLNKWLEEADSS [N59I] | 0.092 ± 0.079
16 | EDTPTSDDLEQFAKQFKQRRIKLGFTQADVGLALGTLYGNVFSQTTICRFEALQLSFKGMCKLKPLLNKWLEEADSS [N59G] | -0.13 ± 0.029
17 | EDTPTSDDLEQFAKQFKQRRIKLGFTQADVGLALGTLYGNVFSQTTICRFEALQLSFKTMCKLKPLLNKWLEEADSS [N59T] | -0.051 ± 0.043
18 | EDTPTSDDLEQFAKQFKQRRIKLGFTQADVGLALGTLYGNVFSQTTICRFEALQLSFKMMCKLKPLLNKWLEEADSS [N59M] | 0.049 ± 0.045

Row | Variant | abundance fitness
19 | EDTPTSDDLEQFAKQFKQRRIKLGFTQADVGLALGTLYGNVFSQTTICRFEALQLSNKNMCKLKPLLNKWLEEADSS [F57N] | 0.031 ± 0.063
20 | EDTPTSDDLEQFAKQFKQRRIKLGFTQADVGLALGTLYGNVFSQTTICRFEALQLSPKNMCKLKPLLNKWLEEADSS [F57P] | -0.063 ± 0.046
21 | EDTPTSDDLEQFAKQFKQRRIKLGFTQADVGLALGTLYGNVFSQTTICRFEALQLSTKNMCKLKPLLNKWLEEADSS [F57T] | 0.01 ± 0.036
22 | EDTPTSDDLEQFAKQFKQRRIKLGFTQADVGLALGTLYGNVFSQTTICRFEALQLSSKNMCKLKPLLNKWLEEADSS [F57S] | -0.053 ± 0.033
23 | EDTPTSDDLEQFAKQFKQRRIKLGFTQADVGLALGTLYGNVFSQTTICRFEALQLSWKNMCKLKPLLNKWLEEADSS [F57W] | -0.169 ± 0.031
24 | EDTPTSDDLEQFAKQFKQRRIKLGFTQADVGLALGTLYGNVFSQTTICRFEALQLSQKNMCKLKPLLNKWLEEADSS [F57Q] | -0.022 ± 0.042
25 | EDTPTSDDLEQFAKQFKQRRIKLGFTQADVGLALGTLYGNVFSQTTICRFEALQLSYKNMCKLKPLLNKWLEEADSS [F57Y] | 0.056 ± 0.11
26 | EDTPTSDDLEQFAKQFKQRRIKLGFTQADVGLALGTLYGNVFSQTTICRFEALQLSRKNMCKLKPLLNKWLEEADSS [F57R] | 0.02 ± 0.025
27 | EDTPTSDDLEQFAKQFKQRRIKLGFTQADVGLALGTLYGNVFSQTTICRFEALQLSVKNMCKLKPLLNKWLEEADSS [F57V] | -0.033 ± 0.028
28 | EDTPTSDDLEQFAKQFKQRRIKLGFTQADVGLALGTLYGNVFSQTTICRFEALQLSFLNMCKLKPLLNKWLEEADSS [K58L] | -0.163 ± 0.042
29 | EDTPTSDDLEQFAKQFKQRRIKLGFTQADVGLALGTLYGNVFSQTTICRFEALQLSFGNMCKLKPLLNKWLEEADSS [K58G] | -0.033 ± 0.029
30 | EDTPTSDDLEQFAKQFKQRRIKLGFTQADVGLALGTLYGNVFSQTTICRFEALQLSFNNMCKLKPLLNKWLEEADSS [K58N] | 0.039 ± 0.18
31 | EDTPTSDDLEQFAKQFKQRRIKLGFTQADVGLALGTLYGNVFSQTTICRFEALQLSFHNMCKLKPLLNKWLEEADSS [K58H] | -0.486 ± 0.26
32 | EDTPTSDDLEQFAKQFKQRRIKLGFTQADVGLALGTLYGNVFSQTTICRFEALQLSFSNMCKLKPLLNKWLEEADSS [K58S] | -0.053 ± 0.051
33 | EDTPTSDDLEQFAKQFKQRRIKLGFTQADVGLALGTLYGNVFSQTTICRFEALQLSFRNMCKLKPLLNKWLEEADSS [K58R] | -0.058 ± 0.031
34 | EDTPTSDDLEQFAKQFKQRRIKLGFTQADVGLALGTLYGNVFSQTTICRFEALQLSFFNMCKLKPLLNKWLEEADSS [K58F] | -0.163 ± 0.15
35 | EDTPTSDDLEQFAKQFKQRRIKLGFTQADVGLALGTLYGNVFSQTTICRFEALQLSFMNMCKLKPLLNKWLEEADSS [K58M] | -0.12 ± 0.055
